Substitutions are numbered along the chain they refer to. Numbers in names are those of the source. Blank lines part the entries; values can stand above or below the binder they belong to.
How the values were obtained:
Human CD47-C33G [1] = target: T1, Human CD47-C33G (human, UniProt Q08722 19-135); experiment: SPR, IgG captured, CD47 in flow; exp 3
T1 construct: also called CD47 mutein with C33G mutation

[2] = target: T2, wild type human CD47 (Acro Biosystems, cat. no. CD7-H5227) (human, UniProt Q08722 19-139); experiment: SPR, IgG captured, CD47 in flow; exp 3
T2 construct: Bought protein used as SPR analyte; also called Human CD47 wt; wild-type CD47

Human CD47-C33G [3] = target: T1, Human CD47-C33G; experiment: SPR, IgG captured, CD47 in flow; exp 1
[4] = target: T2, wild type human CD47 (Acro Biosystems, …); experiment: SPR, IgG captured, CD47 in flow; exp 1
Human CD47-C33G [5] = target: T1, Human CD47-C33G; experiment: SPR, IgG captured, CD47 in flow; exp 2
[6] = target: T2, wild type human CD47 (Acro Biosystems, …); experiment: SPR, IgG captured, CD47 in flow; exp 2
Human CD47-C33G [7] = target: T1, Human CD47-C33G; experiment: SPR, IgG captured, CD47 in flow; exp 2; remark: listed apart in the source
[8] = target: T2, wild type human CD47 (Acro Biosystems, …); experiment: SPR, IgG captured, CD47 in flow; exp 2; remark: listed apart in the source
Human CD47-C33G [9] = target: T1, Human CD47-C33G; experiment: SPR, IgG captured, CD47 in flow; exp 4
[10] = target: T2, wild type human CD47 (Acro Biosystems, …); experiment: SPR, IgG captured, CD47 in flow; exp 4
Human CD47-C33G [11] = target: T1, Human CD47-C33G; experiment: SPR, IgG captured, CD47 in flow; exp 1; remark: listed apart in the source
[12] = target: T2, wild type human CD47 (Acro Biosystems, …); experiment: SPR, IgG captured, CD47 in flow; exp 1; remark: listed apart in the source
Human CD47-C33G [13] = target: T1, Human CD47-C33G; experiment: SPR, IgG captured, CD47 in flow; exp 4; remark: listed apart in the source
[14] = target: T2, wild type human CD47 (Acro Biosystems, …); experiment: SPR, IgG captured, CD47 in flow; exp 4; remark: listed apart in the source
Human CD47-C33G [15] = target: T1, Human CD47-C33G; experiment: SPR, IgG captured, CD47 in flow; exp 3; remark: listed apart in the source
[16] = target: T2, wild type human CD47 (Acro Biosystems, …); experiment: SPR, IgG captured, CD47 in flow; exp 3; remark: listed apart in the source
[17] = target: T3, human CD47 on cells (SHP-77 tumor cells, human red blood cells, CCRF-CEM cells, human CD47 CHO-K1 stable cell … (human, UniProt Q08722 19-323)); experiment: cell-based or functional assay
[18] = target: T3, human CD47 on cells (SHP-77 tumor …); experiment: flow cytometry on SHP-77 cells
[19] = target: T3, human CD47 on cells (SHP-77 tumor …); experiment: flow cytometry on human RBCs;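 note: antibody binding measured by flow cytometry as geometric mean fluorescence intensity over a range of antibody concentrations, with EC50 and maximum taken from a sigmoidal dose-response fit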

B4: 108VH5 / 108VL1.M5 (antibody, human IgG4 S228P, kappa, V domains shown)
VH: EVQLVQSGAEVKKPGASVKVSCKASGYSFTHHWIHWVRQAPGQGLEWMGMIDPSDSETRLSQKFKDRVTMTRDTSTSTVYMELSSLRSEDTAVYYCARLGRYYFDYWGQGTLVTVSS
VL: EIVLTQSPATLSLSPGERATLSCRASQSVSSYLAWYQQKPGQAPRLLIYGASNRATGIPARFSGSGSGTDFTLTISSLEPEDFAVYYCGESYGHLYTFGGGTKVEIKR
notes: Full-length IgG4 (S228P), kappa; also called VH5 VL1.M5
Kd (Human CD47-C33G [3]): 3.4 nM | koff (Human CD47-C33G [3]): 0.0012 s⁻¹ | kon (Human CD47-C33G [3]): 340000 M⁻¹ s⁻¹ | Kd [4]: 0.83 nM | koff [4]: 0.00065 s⁻¹ | kon [4]: 780000 M⁻¹ s⁻¹ | Kd (Human CD47-C33G [7]): 3.9 nM | koff (Human CD47-C33G [7]): 0.0012 s⁻¹ | kon (Human CD47-C33G [7]): 310000 M⁻¹ s⁻¹ | Kd [8]: 0.82 nM | koff [8]: 0.00059 s⁻¹ | kon [8]: 720000 M⁻¹ s⁻¹

B6: 108VH5.M9 / 108VL1.M5 (antibody, human IgG4 S228P, kappa, V domains shown)
VH: B4 VH with P53A, K65Q, D66G
VL: B4 VL
notes: Full-length IgG4 (S228P), kappa; also called VH5.M9 VL1.M5
Kd (Human CD47-C33G [3]): 8.5 nM | koff (Human CD47-C33G [3]): 0.0028 s⁻¹ | kon (Human CD47-C33G [3]): 330000 M⁻¹ s⁻¹ | Kd [4]: 1.9 nM | koff [4]: 0.0014 s⁻¹ | kon [4]: 760000 M⁻¹ s⁻¹

B7: 108VH5.M12 / 108VL1.M5 (antibody, human IgG4 S228P, kappa, V domains shown)
VH: B4 VH with S28T, I34M, P53A, L60Y, S61A, K65Q, D66G
VL: B4 VL
notes: Full-length IgG4 (S228P), kappa; also called VH5.M12 VL1.M5
Kd (Human CD47-C33G [7]): 15 nM | koff (Human CD47-C33G [7]): 0.0041 s⁻¹ | kon (Human CD47-C33G [7]): 280000 M⁻¹ s⁻¹ | Kd [8]: 2.7 nM | koff [8]: 0.002 s⁻¹ | kon [8]: 730000 M⁻¹ s⁻¹

The remaining lines, values ahead:

Kd (Human CD47-C33G [1]): 0.95 nM | koff (Human CD47-C33G [1]): 0.00063 s⁻¹ | kon (Human CD47-C33G [1]): 660000 M⁻¹ s⁻¹ | Kd [2]: 0.2 nM | koff [2]: 0.00032 s⁻¹ | kon [2]: 1.6e+06 M⁻¹ s⁻¹ | Kd (Human CD47-C33G [3]): 0.92 nM | koff (Human CD47-C33G [3]): 0.00068 s⁻¹ | kon (Human CD47-C33G [3]): 740000 M⁻¹ s⁻¹ | Kd [4]: 0.2 nM | koff [4]: 0.00032 s⁻¹ | kon [4]: 1.5e+06 M⁻¹ s⁻¹ | Kd (Human CD47-C33G [5]): 1.3 nM | koff (Human CD47-C33G [5]): 0.00074 s⁻¹ | kon (Human CD47-C33G [5]): 590000 M⁻¹ s⁻¹ | Kd [6]: 0.21 nM | koff [6]: 0.00034 s⁻¹ | kon [6]: 1.6e+06 M⁻¹ s⁻¹ | Kd (Human CD47-C33G [7]): 1 nM | koff (Human CD47-C33G [7]): 0.00073 s⁻¹ | kon (Human CD47-C33G [7]): 720000 M⁻¹ s⁻¹ | Kd [8]: 0.19 nM | koff [8]: 0.00032 s⁻¹ | kon [8]: 1.6e+06 M⁻¹ s⁻¹ | Kd (Human CD47-C33G [9]): 0.67 nM | koff (Human CD47-C33G [9]): 0.00061 s⁻¹ | kon (Human CD47-C33G [9]): 920000 M⁻¹ s⁻¹ | Kd [10]: 0.17 nM | koff [10]: 0.0003 s⁻¹ | kon [10]: 1.8e+06 M⁻¹ s⁻¹ | Kd (Human CD47-C33G [11]): 1 nM | koff (Human CD47-C33G [11]): 0.00073 s⁻¹ | kon (Human CD47-C33G [11]): 720000 M⁻¹ s⁻¹ | Kd [12]: 0.19 nM | koff [12]: 0.00032 s⁻¹ | kon [12]: 1.6e+06 M⁻¹ s⁻¹ | Kd (Human CD47-C33G [13]): 0.67 nM | koff (Human CD47-C33G [13]): 0.00061 s⁻¹ | kon (Human CD47-C33G [13]): 920000 M⁻¹ s⁻¹ | Kd [14]: 0.17 nM | koff [14]: 0.0003 s⁻¹ | kon [14]: 1.8e+06 M⁻¹ s⁻¹ | Kd (Human CD47-C33G [15]): 0.95 nM | koff (Human CD47-C33G [15]): 0.00063 s⁻¹ | kon (Human CD47-C33G [15]): 660000 M⁻¹ s⁻¹ | Kd [16]: 0.2 nM | koff [16]: 0.00032 s⁻¹ | kon [16]: 1.6e+06 M⁻¹ s⁻¹
B1: chimeric antibody 108C10A6 (antibody, V domains shown)
VH: QMQLQQSGPQLVRPGASVKISCKTSGYSFTHHWIHWMKQRPGQGLEWIGMIDPSDSETRLSQKFKDKATLTVDASSSTAYMQLNSPTSEDSALYFCARLGRYYFDYWGQGTTLTVSS
VL: NIVMTQSPRSMSMSVGERVTLSCKASENVGTYISWYQQKPDQSPKLLIYGASNRYTGVPDRFTGSGSGTDFTLTISTVQAEDLADYHCGESYGHLYTFGGGTKLEIK
notes: Chimeric antibody with mouse variable domains; captured through human Fc; also called VH / VL

CCRF-CEM phagocytosis EC50 [17]: 0.18 nM | CCRF-CEM phagocytosis, Phagocytosis (%) [17]: 56.4% | Kd (Human CD47-C33G [13]): 45 nM | koff (Human CD47-C33G [13]): 0.0093 s⁻¹ | kon (Human CD47-C33G [13]): 210000 M⁻¹ s⁻¹ | Kd [14]: 5.8 nM | koff [14]: 0.0032 s⁻¹ | kon [14]: 560000 M⁻¹ s⁻¹ | EC50 [18]: 7.9 nM | Fitted Maximal MFI [18]: 34500 MFI | EC50 [19]: 3.4 nM | Fitted Maximal MFI [19]: 19200 MFI
B2: 108VH10.Mo / 108VL10.Me (antibody, V domains shown)
VH: EVQLVESGGGLVQPGGSLRLSCAASGFTFSHHWIHWVRQAPGKGLEWVAMIDASDSETRLSDSFKGRFTISADTSKNTAYLQMNSLRAEDTAVYYCSRLGRYYFDYWGQGTLVTVSS
VL: DIQMTQSPSSLSASVGDRVTITCRASQSISSYLNWYQQKPGKAPKLLIYGASSRYSGVPSRFSGSRSGTDFTLTISSLQPEDFATYYCGESYGHLYTFGQGTKVEIK
notes: 4D5-framework series; also called VH10.Mo VL10.Me

CCRF-CEM phagocytosis EC50 [17]: 1.2 nM | CCRF-CEM phagocytosis, Phagocytosis (%) [17]: 47.1% | Kd (Human CD47-C33G [13]): 170 nM | koff (Human CD47-C33G [13]): 0.012 s⁻¹ | kon (Human CD47-C33G [13]): 72000 M⁻¹ s⁻¹ | Kd [14]: 15 nM | koff [14]: 0.0039 s⁻¹ | kon [14]: 250000 M⁻¹ s⁻¹ | EC50 [18]: 27.5 nM | Fitted Maximal MFI [18]: 24100 MFI | EC50 [19]: 23.6 nM | Fitted Maximal MFI [19]: 16100 MFI
B3: 108VH10.Mp / 108VL10.Me (antibody, V domains shown)
VH: B2 VH with S61V
VL: B2 VL
notes: 4D5-framework series; constant regions not restated for this series; also called VH10.Mp VL10.Me

Kd (Human CD47-C33G [15]): 1200 nM | koff (Human CD47-C33G [15]): 0.087 s⁻¹ | kon (Human CD47-C33G [15]): 75000 M⁻¹ s⁻¹ | Kd [16]: 12 nM | koff [16]: 0.002 s⁻¹ | kon [16]: 170000 M⁻¹ s⁻¹
B5: 108VH5.M18 / 108VL1.M5 (antibody, human IgG4 S228P, kappa, V domains shown)
VH: B4 VH with S28T, I34M, P53A, D55E, L60Y, S61A, K65Q, D66G
VL: B4 VL
notes: Full-length IgG4 (S228P), kappa; also called VH5.M18 VL1.M5

— patent US20260132197A1 (NANJING LEGEND BIOTECH, published 2026)
